Reference: patent publication US20030119727A1 (Genentech, published 2003)
No end group written: not given here.

What was measured:
[1] = target: T1, recombinant human Factor VIIa (human, UniProt P08709 61-212; P08709 213-466); experiment: phage binding to coated wells
T1 construct: Immobilized directly on microtiter plates at 2 ug/ml; also called FVIIa
T1 sequence (looked up) 1: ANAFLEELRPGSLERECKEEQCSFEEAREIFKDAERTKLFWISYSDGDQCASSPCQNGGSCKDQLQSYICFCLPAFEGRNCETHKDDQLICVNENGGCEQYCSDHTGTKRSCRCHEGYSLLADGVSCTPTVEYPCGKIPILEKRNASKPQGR
T1 sequence (looked up) 2: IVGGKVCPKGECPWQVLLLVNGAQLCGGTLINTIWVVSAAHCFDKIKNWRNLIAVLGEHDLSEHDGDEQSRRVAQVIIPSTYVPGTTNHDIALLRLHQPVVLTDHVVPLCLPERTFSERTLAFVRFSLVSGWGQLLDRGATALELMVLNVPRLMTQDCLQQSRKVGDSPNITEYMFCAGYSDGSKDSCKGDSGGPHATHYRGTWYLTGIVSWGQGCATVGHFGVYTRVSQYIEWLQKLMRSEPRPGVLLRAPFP

[2] = target: T2, BSA (UniProt P02769 25-607); experiment: phage binding to coated wells
T2 construct: Control coating; also called bovine serum albumin
T2 sequence (P02769 25-607 limits assumed): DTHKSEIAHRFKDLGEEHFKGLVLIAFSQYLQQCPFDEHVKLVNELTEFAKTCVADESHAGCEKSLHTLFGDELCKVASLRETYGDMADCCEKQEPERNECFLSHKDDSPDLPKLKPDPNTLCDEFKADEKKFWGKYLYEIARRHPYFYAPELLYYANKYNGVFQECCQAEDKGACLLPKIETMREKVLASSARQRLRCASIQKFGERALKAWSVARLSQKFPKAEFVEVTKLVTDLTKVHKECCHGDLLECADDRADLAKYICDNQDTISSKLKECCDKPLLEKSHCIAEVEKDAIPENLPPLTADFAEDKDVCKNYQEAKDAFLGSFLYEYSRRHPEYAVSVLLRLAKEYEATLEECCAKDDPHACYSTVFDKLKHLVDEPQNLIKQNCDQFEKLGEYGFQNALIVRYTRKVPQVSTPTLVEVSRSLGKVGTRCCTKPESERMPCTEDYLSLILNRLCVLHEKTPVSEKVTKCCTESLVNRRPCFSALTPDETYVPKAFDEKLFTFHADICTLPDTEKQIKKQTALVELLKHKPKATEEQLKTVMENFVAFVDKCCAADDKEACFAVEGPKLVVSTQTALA

B1: Phage bearing the TF56 peptide sequence EAALCDDPRLDRWYCIFAGE (Pool E clone, polyvalent phage display) (peptide)
peptide: EAALCDDPRLDRWYCIFAGE
modifications: not fully specified (bridges); cysteine pairing not given here; also: displayed on phage, coat protein fusion partner not given here
notes: also called this clone
- binding result [1]: binds
- binding result [2]: no binding
